For 167 variants, self-cleavage results are on record in the RNAGym collection of RNA variant scans (doi:10.7554/elife.80360).

B1: Twister Ribozyme (parent)
chain: AACACUGCCAAUGCCGGUCCCAAGCCCGGAUAAAAGUGGAGGGGGCGG

This data set covers variants of B1. Description: self-cleavage, relative activity (ratio to wild type); higher = more cleavage; co-transcriptional.
A35U G44A: the self-cleavage came to 0.843.

Regarding C5A A22U, the self-cleavage stood at 0.249. In the case of C19U G28C, the self-cleavage was found to be 0.908. Take A1U G43C: the self-cleavage was determined as 0.0749.

U6A C19G: the self-cleavage turned out to be 0.0747. The same measure for C27G C46U: 0.105; for G44A G48U: 1.08; for U31C G36C: 0.635. The figure for A2C U18A is 0.0761; for C5U G44U it is 0.816.

G24A A34U: the self-cleavage is 0.0893. The figure for G7A G13U is 0.0584; for C20U A35U it is 1.08; for G39U G48U it is 0.196.

With C9U G47U, the self-cleavage was 0.269. The same measure for G7A G17C: 0.0766. The figure for C26A G43A is 0.124. The same measure for A2G G16C: 0.119; for G28A G39U: 0.16. Consider A23G G44U, for which the self-cleavage was determined as 0.458. The same measure for C15G C26G: 0.0537; for C15A G44C: 0.57; for C21U G42A: 0.0823. For C5G A30C, the self-cleavage was 0.259.

In the case of C9G A11G, the self-cleavage amounted to 0.715. As to A2U C21G, the self-cleavage turned out to be 0.0765. The figure for U6A G47C is 0.296. For the variant A1C C46A, the self-cleavage is 0.148. For the variant G13A G45U, the self-cleavage was determined as 0.539. As for C8U C25G, the self-cleavage was 0.1.

Regarding G7U G48U, the self-cleavage is 0.0928. Regarding C3G A32U, the self-cleavage worked out at 0.593. The figure for A23G C46A is 0.328; for U31C G43C it is 0.194. As for G39C G48A, the self-cleavage is 0.138. The figure for C25U G39U is 0.158. The same measure for C27U G38U: 0.756. Consider C8G G44A, for which the self-cleavage amounted to 0.513.

Turning to U18A G28A, the self-cleavage is 0.2.

Regarding C9U G44A, the self-cleavage was found to be 0.72. As to C3U G47A, the self-cleavage amounted to 0.361. The same measure for C15G U18A: 0.04; for C3U U37A: 0.533; for A10U C25A: 0.0757. The same measure for C25G A40C: 0.0986; for C5A G24C: 0.0665; for C9G A33G: 0.548. For the variant C26U G36U, the self-cleavage was determined as 0.133. The same measure for A4G C27U: 0.74. As to G24A G38A, the self-cleavage was determined as 0.101. In the case of U18G C46A, the self-cleavage came to 0.0573. The same measure for C5G G28A: 0.354. For U6C C21A, the self-cleavage was 0.0427. For C14G C19A, the self-cleavage turned out to be 0.0588. The figure for A1C G13U is 0.207; for A11C A33C it is 0.724. The figure for A1G G47A is 0.334; for C9U U31C it is 0.708; for A30G G42U it is 0.377. As to A11G G38U, the self-cleavage is 0.613. G44U G45C: the self-cleavage was found to be 0.609. The same measure for U18G A22U: 0.0775. The same measure for C14G C27U: 0.0942; for C3A C5A: 0.0993.

Consider G24C G36C, for which the self-cleavage was found to be 0.0888.

As to A2G G39U, the self-cleavage was 0.122. The figure for C25U G41C is 0.147; for G29C G38U it is 0.627.

A10U G44A: the self-cleavage was 0.924. Regarding A11G G28U, the self-cleavage is 0.725.

For A32U C46U, the self-cleavage turned out to be 1.02. The figure for A40C G48C is 0.343; for A22C C27G it is 0.101; for A11C C26G it is 0.08. Consider C8G C21A, for which the self-cleavage turned out to be 0.041. In the case of C8G C21U, the self-cleavage came out at 0.0624. The figure for C5U C27A is 0.21; for U18A G42U it is 0.161. On to C15G G39A, for which the self-cleavage amounted to 0.0759. On to G7U C9A, for which the self-cleavage stood at 0.0711.

G17U G44A: the self-cleavage turned out to be 0.219.

In the case of C21G G47U, the self-cleavage is 0.142.

With C14U C15U, the self-cleavage came out at 1.51.

Take G13C C26G: the self-cleavage turned out to be 0.101. The figure for C19G G24A is 0.0928; for A1G C25G it is 0.205; for U31C it is 1.01.

Turning to C3A A4U, the self-cleavage is 0.0689. In the case of C25U G47U, the self-cleavage came out at 0.573.

A4C U31C: the self-cleavage was 0.249. On to G16A C21A, for which the self-cleavage came to 0.104. The same measure for U12C G17U: 0.291; for C14U A30G: 1.02. For A10G G29A, the self-cleavage stood at 1.09.

Regarding C3U G45U, the self-cleavage worked out at 0.338.

As for A2U C8U, the self-cleavage was 0.109. For the variant A10U G28A, the self-cleavage was found to be 0.885. Consider C20A G24C, for which the self-cleavage stood at 0.0912. The same measure for G29C U31G: 0.851; for G29C U31A: 1; for A11G A34U: 0.913. As to G17A U37A, the self-cleavage was 0.207. G13C G42C: the self-cleavage was 0.166. The same measure for G38C G43A: 0.149; for A32C G44C: 1.03; for C3G A35U: 0.488. For the variant A4C G17A, the self-cleavage was 0.0548. The figure for U12A A40C is 0.291; for A2C A10C it is 0.0739; for A10G C27A it is 0.682. For G24U G39A, the self-cleavage came to 0.0948. For C21G G38C, the self-cleavage worked out at 0.0966. The same measure for C21G G38U: 0.0824; for A11U G41A: 0.747; for C9U C25G: 0.113. The figure for G17A A33C is 0.384.

On to C27U A34G, for which the self-cleavage was 0.483.

For the variant U12G A35C, the self-cleavage turned out to be 0.89. The figure for G24A G29A is 0.155; for G24A G29U it is 0.1.

Take G17A G24C: the self-cleavage amounted to 0.128. The figure for A2U A10U is 0.604; for U12C C19A it is 0.314; for A30U C46G it is 0.931. Regarding C19A U31G, the self-cleavage was found to be 0.334. The same measure for A1U C20A: 0.0791.

In the case of C15G G45A, the self-cleavage amounted to 0.113. The figure for A1G G24A is 0.144; for G13A G24C it is 0.129.

As for A23U U37C, the self-cleavage is 0.0907.

On to G13C G44C, for which the self-cleavage is 0.185. Turning to G29A A34G, the self-cleavage was 0.684. The figure for C9G G29C is 0.396; for C8G A35U it is 0.566; for C25A G43C it is 0.0876. The figure for G39U G42U is 0.149; for A2C G36A it is 0.0575; for A23U C46G it is 0.652. The figure for C19A G45U is 0.257; for C19A G45A it is 0.196.

With G29A G39U, the self-cleavage is 0.232. The same measure for A4G C9G: 0.601; for C15U A40C: 0.148.

Consider C15A C27A, for which the self-cleavage turned out to be 0.18. On to U12C A40G, for which the self-cleavage was 0.107. The same measure for C8A C19G: 0.0926; for A40C G47C: 0.193. The figure for C20A G45U is 0.17; for U31G A40U it is 0.199; for A10C A22G it is 0.256. The same measure for C19A G24U: 0.0798. Regarding G16U G44A, the self-cleavage turned out to be 1.01. The figure for A32C G42U is 0.266; for C25G G45U it is 0.145.

For the variant A10G G45A, the self-cleavage amounted to 1.13. Take C26A U31A: the self-cleavage was 0.638. The figure for A4U U37C is 0.022; for A1G G48U it is 0.409. The same measure for U12G U37G: 0.653. The figure for C5A G43U is 0.108; for A4U G43C it is 0.0736. In the case of G17A A34C, the self-cleavage is 0.0806. The same measure for U12A G28U: 1.06; for C27G G44C: 0.133; for C8U C27U: 0.288. The figure for C8G C14U is 0.625; for C15U C20G it is 0.135.
